Test results taken from paper PMC4100210 (Nature communications, 2014).
Ends that are not written are not given here.

Experiments:
Dvl2 FL F277A/M300A = target: T1, Dvl2 FL F277A/M300A (human, UniProt O14641 1-736, F277A | M300A); test: pull-down
T1 sequence (looked up): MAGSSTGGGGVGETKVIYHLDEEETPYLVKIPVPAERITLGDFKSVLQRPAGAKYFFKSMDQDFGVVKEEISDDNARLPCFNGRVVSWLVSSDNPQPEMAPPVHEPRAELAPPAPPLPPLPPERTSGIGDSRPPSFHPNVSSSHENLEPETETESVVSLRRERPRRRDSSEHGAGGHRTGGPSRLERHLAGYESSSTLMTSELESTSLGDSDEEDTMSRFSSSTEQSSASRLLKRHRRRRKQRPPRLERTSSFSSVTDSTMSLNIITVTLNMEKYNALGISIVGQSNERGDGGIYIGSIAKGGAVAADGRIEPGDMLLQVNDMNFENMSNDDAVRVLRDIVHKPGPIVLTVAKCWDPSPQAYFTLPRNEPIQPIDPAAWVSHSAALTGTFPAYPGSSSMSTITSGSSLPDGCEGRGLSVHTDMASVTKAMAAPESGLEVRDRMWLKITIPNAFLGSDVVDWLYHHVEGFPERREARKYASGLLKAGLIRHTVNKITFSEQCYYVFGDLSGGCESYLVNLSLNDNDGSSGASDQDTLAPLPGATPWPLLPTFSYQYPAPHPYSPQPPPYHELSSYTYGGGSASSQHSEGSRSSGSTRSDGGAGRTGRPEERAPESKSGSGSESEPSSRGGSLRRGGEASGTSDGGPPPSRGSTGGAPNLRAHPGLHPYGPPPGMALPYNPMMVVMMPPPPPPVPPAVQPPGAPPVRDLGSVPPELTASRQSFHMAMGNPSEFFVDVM

Dvl2 full-length protein = target: T2, Dvl2 full-length protein (human, UniProt O14641 1-736); test: pull-down
T2 sequence (looked up): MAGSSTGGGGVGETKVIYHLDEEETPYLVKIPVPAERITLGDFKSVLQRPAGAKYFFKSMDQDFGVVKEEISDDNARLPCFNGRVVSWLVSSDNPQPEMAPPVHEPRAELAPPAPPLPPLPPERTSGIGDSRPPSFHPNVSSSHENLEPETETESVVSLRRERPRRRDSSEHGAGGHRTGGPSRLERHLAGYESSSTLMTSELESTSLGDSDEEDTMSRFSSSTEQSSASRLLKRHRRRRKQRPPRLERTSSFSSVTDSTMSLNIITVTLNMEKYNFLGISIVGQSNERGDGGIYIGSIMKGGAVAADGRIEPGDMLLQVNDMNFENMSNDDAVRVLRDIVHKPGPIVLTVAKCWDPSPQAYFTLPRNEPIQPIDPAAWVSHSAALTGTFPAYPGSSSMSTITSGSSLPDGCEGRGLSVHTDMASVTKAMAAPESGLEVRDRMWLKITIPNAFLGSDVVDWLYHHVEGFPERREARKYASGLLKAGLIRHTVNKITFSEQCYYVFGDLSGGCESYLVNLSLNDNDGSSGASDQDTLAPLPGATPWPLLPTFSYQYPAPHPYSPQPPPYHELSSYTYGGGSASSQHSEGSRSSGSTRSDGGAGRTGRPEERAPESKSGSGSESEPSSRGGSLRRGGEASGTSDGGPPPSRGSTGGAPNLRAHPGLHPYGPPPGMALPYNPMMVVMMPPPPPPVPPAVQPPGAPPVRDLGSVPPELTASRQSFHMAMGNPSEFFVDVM

Binder: {GST}-GKTLQSWRRFYHRLSHSSKGETAV [GST-Fz7 fusion peptide (GST-GKTLQSWRRFYHRLSHSSKGETAV)]
- binding result (Dvl2 FL F277A/M300A): binds
- binding result (Dvl2 full-length protein): binds
